Measurements as given in the supplement of paper PMC12042874.
± gives the uncertainty stated by the source.

Experiment: amyloid nucleation score (Sup35N fusion, yeast selection) (log enrichment); library NNK3; higher = more nucleation; inactive = no reads after selection
Method in brief: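 In psi-negative yeast, Sup35N fusions carrying peptides of 20 random codons were induced with 100 μM copper sulfate for 24 hours. The cells then grew 7 days at 30°C on medium lacking adenine and uracil, and plasmid inserts from input and output were Illumina-sequenced, excluding sequences with under 100 input reads. Nucleation score is the DiMSum log enrichment of output over input reads, centred on the mode score of non-aggregating sequences.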

Substance	amyloid nucleation score
VSIIVRYQL	1.93 ± 0.096
VSITVFPFTLLITYLI	0.165 ± 0.75
VSKVKSNPPYITDEIVFCRR	inactive
VSLCIDRSMRCPRLVCVERG	inactive
VSLKEITKLYRSIWVFLWSS	inactive
VSLTFVVCRALFLSFTW	inactive
VSMSMRYQDASGVTSCFTSL	inactive
VSNDLNFILYAPTNVVMSTY	1.25 ± 0.14
VSNNVQVNQVMYFNTVICIV	2.69 ± 0.063
VSNVSGSIHWGNFCAMNIAV	inactive
VSNYDLESS	inactive
VSSMGSV	inactive
VSTRGITDMMLGDMAVVNVG	inactive
VSTSPNIDSLRCFCIHVKRR	inactive
VSVCLVCAVIPRLLSMRCIV	inactive
VSVLMGAWDLMWMPGKS	1.08 ± 0.14
VSYVGLDSDICSFNWLSLLA	inactive
VTAELNFITVNGYVE	inactive
VTCNVSSYGTMKEKVAYEGS	-0.003 ± 0.88
VTFAARLTYKSILDILCMME	inactive
VTFYFSYMCAKGTH	0.53 ± 0.17

Substance	amyloid nucleation score
VTGLEVRHQRHIWHNMGMIR	inactive
VTKAWMCYYLLLYVWDEGRA	inactive
VTLTLEGLDRWVNQSEIAPS	0.071 ± 0.29
VTMFDLVSM	inactive
VTMMLVMLFSQMFSFLAFVN	inactive
VTQYMYTT	inactive
VTRCCPMWD	-0.702 ± 2.5
VTRFTYPRILLGRNVDWLSF	inactive
VTVSSWASYIIVNGKWRIKC	inactive
VTWIYSSNGVWINGDKSFML	1.22 ± 0.079
VVDYNKDQDGAMTASRGDRK	-0.726 ± 1.5
VVERKGRSKKLVFVCLLILW	inactive
VVGKFSTADILSFR	inactive
VVHKNRLMKFHRFLILYSEG	inactive
VVINHYMNHIAEHTDSLRGG	1.57 ± 0.075
VVKNTW	inactive
VVKYSSRCSKVRICLSRWVW	inactive
VVQSGRAFRCYRCSLEVQTE	inactive
VVSAGIAFPWTGLS	inactive
VVSLMDTPFD	inactive
VVSTNVYGGLTMASYCGALP	1.24 ± 0.16

Substance	amyloid nucleation score
VVTSRCLRKKLFLDLSVCIT	inactive
VVVIHE	inactive
VVYIRWYIRLLRHNIVSILS	inactive
VWFNPLCYRNYGMETLVSTK	inactive
VWIIEK	1.99 ± 0.062
VWLCSLLQITFIYAEVTVSL	inactive
VWMVCSPSGIRLANSFVVDI	inactive
VWYDRSEGLARAHNLYSGSE	inactive
VWYVSLTMIWLGSMALGFAR	inactive
VYDLVT	inactive
VYFMCVQHWLVSGHPDPLNE	-0.246 ± 0.69
VYGIQRVMGRLWIMNVWVPF	inactive
VYGLVRLALSAINDYEDYNL	inactive
VYGSQGYRGRCFHLCYYYRS	inactive
VYGWMVVHVGRLWTWLHRLL	inactive
VYHFSGWCRHSCSSLQKSHD	inactive
VYHTYVVLMGGHLPTSLGVT	1.8 ± 0.078
VYISESVQRMYSLCTFSSLD	1.18 ± 0.085
VYISFGFLILFLFSEFLPCV	inactive
VYRFGMVLRNVHLFRLLIGG	inactive
VYRGLQWECLDGIVAFRRER	inactive

Substance	amyloid nucleation score
VYRIARMAQHLIRWKNR	0.187 ± 0.7
VYRQVLRET	inactive
VYSLE	inactive
VYSLMGS	inactive
VYSTVF	inactive
VYTTS	inactive
VYVFAQ	inactive
VYVHLRNLQSL	inactive
VYYFRQLFPICIDNQARTWC	inactive
VYYSWVICSMERTKSWSMSS	-0.227 ± 0.75
WAIGQLYFMRILV	inactive
WASDNVEGDWWYWW	0.017 ± 0.57
WAVYVGVL	inactive
WCCFSWKVLRHGLTSACGC	1.31 ± 0.11
WCCGY	0.774 ± 0.27
WCGVFWLVVMAY	inactive
WCKVRYSTNMVTSTSATLVA	inactive
WCPTGEYRKCYNMSFARW	inactive
